The chains are these.
B1: humanized antibody LP09026 (antibody, human IgG4 S228P, kappa, V domains shown)
VH: EVQLQQSGPEVVKPGVSVKISCKGSGYTFTDYAMHWVKQSPGKSLEWIGVISTKYGKTNYNPSFQGQATMTVDKSSSTAYMELASLKASDSAIYYCARGDEGYSWGQGTSVTVSS
VL: EIVMTQTPLSLPVSLGDRASISCRSGQSLVHSNTNTYLHWYLQKPGQSPKLLIYTVSNRFSGVPDRFSGSGSGSDFTLTISRVEAEDLGVYFCSQNTFVPWTFGGGTKLEIKR
B2: humanized antibody LP09028 (antibody, human IgG4 S228P, kappa, V domains shown)
VH: B1 VH with E101D
VL: B1 VL
B3: humanized anti-peptide Aβ antibody VH1VL1 (LP09027) (antibody, human IgG4 S228P, kappa, V domains shown)
VH: B1 VH with E101D
VL: B1 VL with T34G

Our source for the EC50 and LMW/PF values is patent publication US20120177639A1.

Where a chain is given by its changes, count along the chain named.

The first experiment has as its target low-molecular-weight oligomers of Aβ (1-42) (UniProt P05067). The experiment in a line: ELISA, antigen coated at 1 µg/ml, anti-human Fc peroxidase detection. (In an ELISA, binding on a coated surface is turned into a signal by an enzyme label.)
As a reminder, the EC50 is the concentration that produces a half-maximal response. Low values mean higher potency in that assay, high ones lower potency in that assay. B1 had an EC50 of 41.4 µg/mL.

B2 gave an EC50 of 21.8 µg/mL.

B3 registered a 50% effective concentration (EC50) of 14.7 µg/mL.

Another experiment deals with protofibrils prepared from the synthetic peptide Aβ (1-42) (UniProt P05067). The experiment is described as above.
Regarding B1, the EC50 amounted to 0.0587 µg/mL.

The molecule B2 showed an EC50 of 0.0892 µg/mL.

As for B3, the EC50 worked out at 0.0798 µg/mL.

Another experiment has the same target. Put plainly: ELISA; ratio of the EC50 on low-molecular-weight oligomers to the EC50 on protofibrils.
For the molecule B1, the LMW/PF stood at 705.

Consider B2, for which the LMW/PF was 244.

With B3, the LMW/PF worked out at 184.
